{
  "source": "patent US20140348819A1",
  "about": "“Methods of Treating Cancer” (Dana-Farber Cancer Institute, Inc., priority 2011, published 2014)",
  "molecules": {"B1": {"name": "Pleiotrophin (protein, UniProt P21246 33-168, looked up)", "Pleiotrophin": "GKKEKPEKKVKKSDCGEWQWSVCVPTSGDCGLGTREGTRTGAECKQTMKTQRCKIPCNWKKQFGAECKYQFQAWGECDLNTALKTRTGSLKRALHNAECQKTVTISKPCGKLTKPKPQAESKKKKKEGKKQEKMLD"}},
  "test_system": "six V600E BRAF melanoma cell lines",
  "experiment": "Screening of recombinant RTK ligands for ability to confer resistance to BRAFi (PLX4720) or MEKi (PD184352) (Table 4)",
  "type": "cell-based, human",
  "set-up": "ability of recombinant RTK ligand to confer resistance / ability of recombinant RTK ligand to confer resistance (screening value): scale not given here",
  "outline": "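Resistance to BRAFi (PLX4720) or MEKi (PD184352) was tested in six V600E BRAF melanoma lines given one of 22 recombinant RTK ligands. For a subset of RTKs, activation was checked by high-throughput tyrosine kinase phosphorylation profiling and western blot.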",
  "data": [
    {"molecule": "B1", "values": [
      {"measurement": "ability of recombinant RTK ligand to confer resistance", "setting": "A2058, PD184352 - 1 uM, ligand 3.9 ng/ml", "value": 1.06},
      {"measurement": "ability of recombinant RTK ligand to confer resistance", "setting": "A2058, PD184352 - 1 uM, ligand 15.625 ng/ml", "value": 1.07},
      {"measurement": "ability of recombinant RTK ligand to confer resistance", "setting": "A2058, PD184352 - 1 uM, ligand 62.5 ng/ml", "value": 1.03},
      {"measurement": "ability of recombinant RTK ligand to confer resistance", "setting": "A2058, PD184352 - 1 uM, ligand 250 ng/ml", "value": 1.00},
      {"measurement": "ability of recombinant RTK ligand to confer resistance", "setting": "A2058, PD184352 - 1 uM, ligand 1000 ng/ml", "value": 0.87},
      {"measurement": "ability of recombinant RTK ligand to confer resistance", "setting": "A2058, PLX4720 - 2 uM, ligand 3.9 ng/ml", "value": 1.03},
      {"measurement": "ability of recombinant RTK ligand to confer resistance", "setting": "A2058, PLX4720 - 2 uM, ligand 15.625 ng/ml", "value": 1.04},
      {"measurement": "ability of recombinant RTK ligand to confer resistance", "setting": "A2058, PLX4720 - 2 uM, ligand 62.5 ng/ml", "value": 1.04},
      {"measurement": "ability of recombinant RTK ligand to confer resistance", "setting": "A2058, PLX4720 - 2 uM, ligand 250 ng/ml", "value": 1.02},
      {"measurement": "ability of recombinant RTK ligand to confer resistance", "setting": "A2058, PLX4720 - 2 uM, ligand 1000 ng/ml", "value": 0.93},
      {"measurement": "ability of recombinant RTK ligand to confer resistance", "setting": "C32, PD184352 - 1 uM, ligand 3.9 ng/ml", "value": 1.07},
      {"measurement": "ability of recombinant RTK ligand to confer resistance", "setting": "C32, PD184352 - 1 uM, ligand 15.625 ng/ml", "value": 1.08},
      {"measurement": "ability of recombinant RTK ligand to confer resistance", "setting": "C32, PD184352 - 1 uM, ligand 62.5 ng/ml", "value": 1.07},
      {"measurement": "ability of recombinant RTK ligand to confer resistance", "setting": "C32, PD184352 - 1 uM, ligand 250 ng/ml", "value": 1.12},
      {"measurement": "ability of recombinant RTK ligand to confer resistance", "setting": "C32, PD184352 - 1 uM, ligand 1000 ng/ml", "value": 0.99},
      {"measurement": "ability of recombinant RTK ligand to confer resistance", "setting": "C32, PLX4720 - 2 uM, ligand 3.9 ng/ml", "value": 1.01},
      {"measurement": "ability of recombinant RTK ligand to confer resistance", "setting": "C32, PLX4720 - 2 uM, ligand 15.625 ng/ml", "value": 1.04},
      {"measurement": "ability of recombinant RTK ligand to confer resistance", "setting": "C32, PLX4720 - 2 uM, ligand 62.5 ng/ml", "value": 0.95},
      {"measurement": "ability of recombinant RTK ligand to confer resistance", "setting": "C32, PLX4720 - 2 uM, ligand 250 ng/ml", "value": 0.96},
      {"measurement": "ability of recombinant RTK ligand to confer resistance", "setting": "C32, PLX4720 - 2 uM, ligand 1000 ng/ml", "value": 0.87},
      {"measurement": "ability of recombinant RTK ligand to confer resistance", "setting": "Colo 829, PD184352 - 1 uM, ligand 3.9 ng/ml", "value": 1.05},
      {"measurement": "ability of recombinant RTK ligand to confer resistance", "setting": "Colo 829, PD184352 - 1 uM, ligand 15.625 ng/ml", "value": 0.99},
      {"measurement": "ability of recombinant RTK ligand to confer resistance", "setting": "Colo 829, PD184352 - 1 uM, ligand 62.5 ng/ml", "value": 0.99},
      {"measurement": "ability of recombinant RTK ligand to confer resistance", "setting": "Colo 829, PD184352 - 1 uM, ligand 250 ng/ml", "value": 0.96},
      {"measurement": "ability of recombinant RTK ligand to confer resistance", "setting": "Colo 829, PD184352 - 1 uM, ligand 1000 ng/ml", "value": 0.95},
      {"measurement": "ability of recombinant RTK ligand to confer resistance", "setting": "Colo 829, PLX4720 - 2 uM, ligand 3.9 ng/ml", "value": 1.03},
      {"measurement": "ability of recombinant RTK ligand to confer resistance", "setting": "Colo 829, PLX4720 - 2 uM, ligand 15.625 ng/ml", "value": 0.96},
      {"measurement": "ability of recombinant RTK ligand to confer resistance", "setting": "Colo 829, PLX4720 - 2 uM, ligand 62.5 ng/ml", "value": 0.97},
      {"measurement": "ability of recombinant RTK ligand to confer resistance", "setting": "Colo 829, PLX4720 - 2 uM, ligand 250 ng/ml", "value": 0.36},
      {"measurement": "ability of recombinant RTK ligand to confer resistance", "setting": "Colo 829, PLX4720 - 2 uM, ligand 1000 ng/ml", "value": 0.98},
      {"measurement": "ability of recombinant RTK ligand to confer resistance", "setting": "G-361, PD184352 - 1 uM, ligand 3.9 ng/ml", "value": 0.96},
      {"measurement": "ability of recombinant RTK ligand to confer resistance", "setting": "G-361, PD184352 - 1 uM, ligand 15.625 ng/ml", "value": 0.96},
      {"measurement": "ability of recombinant RTK ligand to confer resistance", "setting": "G-361, PD184352 - 1 uM, ligand 62.5 ng/ml", "value": 0.97},
      {"measurement": "ability of recombinant RTK ligand to confer resistance", "setting": "G-361, PD184352 - 1 uM, ligand 250 ng/ml", "value": 0.92},
      {"measurement": "ability of recombinant RTK ligand to confer resistance", "setting": "G-361, PD184352 - 1 uM, ligand 1000 ng/ml", "value": 0.92},
      {"measurement": "ability of recombinant RTK ligand to confer resistance", "setting": "G-361, PLX4720 - 2 uM, ligand 3.9 ng/ml", "value": 1.04},
      {"measurement": "ability of recombinant RTK ligand to confer resistance", "setting": "G-361, PLX4720 - 2 uM, ligand 15.625 ng/ml", "value": 0.97},
      {"measurement": "ability of recombinant RTK ligand to confer resistance", "setting": "G-361, PLX4720 - 2 uM, ligand 62.5 ng/ml", "value": 0.94},
      {"measurement": "ability of recombinant RTK ligand to confer resistance", "setting": "G-361, PLX4720 - 2 uM, ligand 250 ng/ml", "value": 0.94},
      {"measurement": "ability of recombinant RTK ligand to confer resistance", "setting": "G-361, PLX4720 - 2 uM, ligand 1000 ng/ml", "value": 1.00},
      {"measurement": "ability of recombinant RTK ligand to confer resistance", "setting": "SK-MEL-5, PD184352 - 1 uM, ligand 3.9 ng/ml", "value": 0.93},
      {"measurement": "ability of recombinant RTK ligand to confer resistance", "setting": "SK-MEL-5, PD184352 - 1 uM, ligand 15.625 ng/ml", "value": 1.00},
      {"measurement": "ability of recombinant RTK ligand to confer resistance", "setting": "SK-MEL-5, PD184352 - 1 uM, ligand 62.5 ng/ml", "value": 1.02},
      {"measurement": "ability of recombinant RTK ligand to confer resistance", "setting": "SK-MEL-5, PD184352 - 1 uM, ligand 250 ng/ml", "value": 1.08},
      {"measurement": "ability of recombinant RTK ligand to confer resistance", "setting": "SK-MEL-5, PD184352 - 1 uM, ligand 1000 ng/ml", "value": 1.11},
      {"measurement": "ability of recombinant RTK ligand to confer resistance", "setting": "SK-MEL-5, PLX4720 - 2 uM, ligand 3.9 ng/ml", "value": 0.92},
      {"measurement": "ability of recombinant RTK ligand to confer resistance", "setting": "SK-MEL-5, PLX4720 - 2 uM, ligand 15.625 ng/ml", "value": 0.89},
      {"measurement": "ability of recombinant RTK ligand to confer resistance", "setting": "SK-MEL-5, PLX4720 - 2 uM, ligand 62.5 ng/ml", "value": 0.95},
      {"measurement": "ability of recombinant RTK ligand to confer resistance", "setting": "SK-MEL-5, PLX4720 - 2 uM, ligand 250 ng/ml", "value": 1.07},
      {"measurement": "ability of recombinant RTK ligand to confer resistance", "setting": "SK-MEL-5, PLX4720 - 2 uM, ligand 1000 ng/ml", "value": 0.97},
      {"measurement": "ability of recombinant RTK ligand to confer resistance", "setting": "SK-MEL-28, PD184352 - 1 uM, ligand 3.9 ng/ml", "value": 1.11},
      {"measurement": "ability of recombinant RTK ligand to confer resistance", "setting": "SK-MEL-28, PD184352 - 1 uM, ligand 15.625 ng/ml", "value": 0.98},
      {"measurement": "ability of recombinant RTK ligand to confer resistance", "setting": "SK-MEL-28, PD184352 - 1 uM, ligand 62.5 ng/ml", "value": 0.93},
      {"measurement": "ability of recombinant RTK ligand to confer resistance", "setting": "SK-MEL-28, PD184352 - 1 uM, ligand 250 ng/ml", "value": 1.02},
      {"measurement": "ability of recombinant RTK ligand to confer resistance", "setting": "SK-MEL-28, PD184352 - 1 uM, ligand 1000 ng/ml", "value": 0.87},
      {"measurement": "ability of recombinant RTK ligand to confer resistance", "setting": "SK-MEL-28, PLX4720 - 2 uM, ligand 3.9 ng/ml", "value": 1.04},
      {"measurement": "ability of recombinant RTK ligand to confer resistance", "setting": "SK-MEL-28, PLX4720 - 2 uM, ligand 15.625 ng/ml", "value": 0.95},
      {"measurement": "ability of recombinant RTK ligand to confer resistance", "setting": "SK-MEL-28, PLX4720 - 2 uM, ligand 62.5 ng/ml", "value": 0.95},
      {"measurement": "ability of recombinant RTK ligand to confer resistance", "setting": "SK-MEL-28, PLX4720 - 2 uM, ligand 250 ng/ml", "value": 0.96},
      {"measurement": "ability of recombinant RTK ligand to confer resistance", "setting": "SK-MEL-28, PLX4720 - 2 uM, ligand 1000 ng/ml", "value": 0.89}
    ]}
  ]
}
